Measured values from patent US20220380473A1, “ANTI-GAL3 ANTIBODIES AND USES THEREOF” (TrueBinding, Inc., priority 2019, published 2022).
Entries after “also recorded” stand apart in the source; their conditions may differ.

Tests used:
[1] = test system: mouse unilateral ureteral obstruction (UUO) model of kidney fibrosis; test: Mouse UUO model of kidney fibrosis (Example 32); format: in vivo; conditions: treated one day before UUO; for KIM-1 levels / serum NGAL levels: vs isotype control; for picosirius red staining of kidney, image quantification: isotype 2.65%
Source text: To further evaluate the ability of GAL3-targeted antibodies with the ability to block TIM3-GAL3 assembly to impact fibrosis, we evaluated the impact of humanized IMT001-4 and IMT006-1 in the mouse unilateral ureteral obstruction (UUO) model of kidney fibrosis. Briefly, 8-week-old C57BL/6J male mice were divided into sham, UUO with HuIgG4−, and UUO with HuIMT001-4, HuIMT006-1, and UUO with metformin-treatment. HuIgG4, HuIMT001-4 and HuIMT006-1 were each administered by intraperitoneal route at 10 mg/kg Q2Dx3 whereas metformin (500 mg/kg/day) was administered to mice dissolved in drinking water. In some settings therapeutic antibodies or metformin was administered 1 day before UUO, whereas in other experiments therapeutic antibodies or metformin was administered 1 day after UUO. After 7 days of UUO surgery, mice were sacrificed, left kidney was harvested and fixed with 4% paraformaldehyde for immunohistochemistry (IHC) and blood was collected in Heparin-EDTA tubes for blood biochemistry analysis. Levels of plasma mouse TIM-1/KIM-1/HAVCR were measured using a commercial ELISA kit (Catalog #MKM100; R&D Systems, Minneapolis, Minn.) according to the protocol provided by the manufacturer. Levels of plasma mouse Lipocalin-2/NGAL were measured using a commercial ELISA kit (Catalog #DY1857; R&D Systems, Minneapolis, Minn.) according to the protocol provided by the manufacturer. 5 um sections of fixed kidney specimens were produced and processed for picosirius red staining as described for liver specimens above.
To evaluate the robustness of TIM3-GAL3 blocking antibodies in reducing kidney fibrosis, the ability of mIMT001 to inhibit fibrosis when administered one day after UUO surgery was evaluated. Following UUO surgery and treatment with isotype or control antibodies, kidney specimens were harvested and stained by IHC for Collagen 1a1 (Col1a1), a marker of kidney fibrosis.

human Gal3-His = human Gal3-His (Homo sapiens, UniProt P17931); test: Antibody binning by biolayer interferometry (Gator); format: binding; conditions: antibody competition
Description: To determine whether Gal3-binding antibodies with Gal3-TIM3 blocking activity bind to the same or overlapping regions of the Gal3 molecule, antibody binning assays were performed to assess the ability of antibodies to simultaneously bind Gal3. Amine-reactive probes were loaded onto a Gator biosensor (Probe Life, Palo Alto, Calif.), equilibrated in dH20 for 60 seconds, dipped into 100 μl EDC 0.2M/NHS 0.05M activation buffer for 30 seconds, then dipped into a solution of […] human Gal3-His in 10 mM NaOAc buffer, pH 5 until binding was saturated, and quenched in 1 M ethanolamine pH 8.5 for 300 seconds. Following Gal3-His loading, tips were dipped in 20 μg/mL saturating antibody, then successively dipped into 5 μg/mL competing antibody.

Galectin-3 = Galectin-3 (Homo sapiens, UniProt P17931); test: SPR (BiacoreT200) binding affinity; conditions: 25° C., read-out: hGal-3 KD
Description: GAL3-binding antibodies were evaluated for their binding affinity by SPR. Kinetics experiments were performed on BiacoreT200 at 25° C. in high performance mode. Ligand proteins, purified antibodies were captured onto a CM5 chip coupled with anti-human Fc or anti-mouse Fc antibody, three antibodies at a time onto flow cell #2, 3, and 4, respectively, while flow cell #1 was used as reference. The analyte Galectin-3 in HBS-EP buffer was injected over all four flow cells at concentrations of 100, 50, 25, 12.5, 6.25, 3.125 and 0 nM at a flow rate of 30 μL/min. The complex was allowed to associate and dissociate for 240 and 300 seconds, respectively. The surfaces were regenerated with a 30 second injection of 10 mM Glycine pH 1.7 (flow rate 30 μL/min). The data were fit to a simple 1:1 interaction model using the global data analysis option available within BiacoreT200 Evaluation software V2.0. The affinity of Gal3 monoclonal antibodies was confirmed to be […] 30 nM for all antibodies studied (Table 24.1). Antibodies with affinity less than 2E-7 were selected for further characterization.

hGal3 peptide = test: Gal3 peptide library ELISA (Example 25); format: binding, human; conditions: for Epitope Mapping: hGal3 peptide No. bound; for Gal3 peptide bound: peptide array ELISA
Description: To identify the epitopes to which Gal3 antibodies with and without Gal3-TIM3 blocking activity bound, a library of 20 amino acid peptides representing portions of Gal3, summarized in Table 24.1, was produced and the ability to bind Gal3 antibodies was evaluated by ELISA.
At least 2 μg/ml of hGal3 peptide in 50 μl of PBS or 0.1 μg/ml of full-length human Gal3 protein (GenScript) and human Galectin-3 protein (Acro Biosystems, GA3-H5129) were diluted in PBS (Corning, 21-030-CM) to concentrations of at least 2 μg/ml or 0.1 μg/ml, respectively, and added to the wells of a 96-well ELISA plate (Thermo Fisher, 44-2404-21). After incubating the plate at 4° C. overnight, the plate was washed three times with PBST (PBS with 0.05% Tween 20 [VWR, 0777]). The plate was then blocked for an hour with 2% BSA (EMD Millipore, 126609) in PBST at room temperature with gentle rocking. Thereafter, the 2% BSA in PBST was discarded and human Galectin-3 hybridoma supernatants or antibodies were diluted in 2% BSA in PBST to concentrations of at least 0.1 μg/ml and added to the wells. The plate was incubated for an hour at room temperature with gentle rocking and then washed three times with PBST. Afterwards, Goat Anti-Mouse IgG-HRP (Jackson ImmunoResearch, 115-036-1461) or Goat Anti-Rat IgG HRP (abcam, ab205720) diluted in 2% BSA in PBST (1:4000) were added to the wells. The plate was incubated for 30 minutes to 1 hour at room temperature with gentle rocking and then washed three times with PB ST. TMB substrate (Thermo Scientific, 34029) was then added to each well. The reaction was stopped with 1M HCl (JT Baker, 5620-02) and read using a plate reader (Molecular Devices) at absorbance of 450 nm.

[2] = target: T1, association of GAL3 and TIM3 (Homo sapiens, UniProt P17931); test: GAL3-TIM3 blocking ELISA (Examples 24, 27); format: binding; conditions: for GAL3-TIM3 Blocking @ 3 ug/mL: 3 ug/mL antibody
T1 construct: full-length human Galectin-3 protein (Acro Biosystems, GA3-H5129); linker-spaced 6-histidine tag; purchased Acro Biosystems GA3-H5129 (Gal3); TM3-H5229 (TIM-3)
Description: Positively scoring wells were evaluated for the ability to block association of GAL3 and TIM3. To identify GAL3-targeted antibodies with the ability to block the interaction of GAL3 and TIM3, purified GAL3 and TIM3 proteins were incubated in the presence of GAL3-immunization hybridoma supernatants described above, or without antibody, and protein interaction was evaluated by ELISA. Human Galectin-3 protein (Acro Biosystems, GA3-H5129) was diluted in PBS (Corning, 21-030-CM) to a concentration of 3 μg/ml and added to the wells of a 96-well ELISA plate (Thermo Fisher, 44-2404-21). After incubating the plate at 4° C. overnight, the plate was washed three times with PBST (PBS with 0.05% Tween 20 [VWR, 0777]). The plate was then blocked for an hour with 2% BSA (EMD Millipore, 126609) in PBST at room temperature with gentle rocking. Thereafter, the 2% BSA in PBST was discarded and antibody or inhibitor (3-fold dilutions beginning at 20 μg/ml, 60 μg/ml, or 180 μM) in 2% BSA in PBST was added to the wells. Afterwards, 2 μg/ml of human TIM3 (Aero Biosystems, TM3-H5229) in 2% BSA in PBST was added to the antibody or inhibitor in the wells in a 1:1 ratio. The plate was incubated for an hour at room temperature with gentle rocking. Thereafter, the plate was washed three times with PBST, and 0.3 μg/ml of human TIM3 Biotinylated Antibody (R&D Systems, BAF2365) in 2% BSA in PBST was added to the wells. The plate was incubated for an hour with gentle rocking and then washed three times with PBST. Avidin-HRP (1:2000) was then added to the wells. The plate was incubated at room temperature for an hour with gentle rocking and then washed three times with PBST. TMB substrate (Thermo Scientific, 34029) was then added to each well. The reaction was stopped with 1M HCl (JT Baker, 5620-02) and read using a plate reader (Molecular Devices) at absorbance of 450 nm.

Chain of human Gal3-His (P17931 whole entry): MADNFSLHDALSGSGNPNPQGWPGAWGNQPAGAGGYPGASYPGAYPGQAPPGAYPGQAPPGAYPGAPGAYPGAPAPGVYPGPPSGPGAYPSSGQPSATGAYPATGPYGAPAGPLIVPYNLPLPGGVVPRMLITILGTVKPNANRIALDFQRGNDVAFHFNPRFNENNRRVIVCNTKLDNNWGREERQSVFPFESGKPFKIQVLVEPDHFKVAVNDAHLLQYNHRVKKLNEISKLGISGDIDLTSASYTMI
Chain of Galectin-3 (P17931 whole entry): as above
T1 sequence (P17931 2-250 limits assumed): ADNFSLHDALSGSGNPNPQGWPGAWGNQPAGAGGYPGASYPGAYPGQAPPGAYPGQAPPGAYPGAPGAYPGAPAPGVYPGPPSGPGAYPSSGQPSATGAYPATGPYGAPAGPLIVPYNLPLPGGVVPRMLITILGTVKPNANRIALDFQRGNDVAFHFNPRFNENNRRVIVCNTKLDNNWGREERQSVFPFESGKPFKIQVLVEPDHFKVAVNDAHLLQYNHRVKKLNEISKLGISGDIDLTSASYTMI

Molecule	picosirius red staining of kidney, qualitative [1]	KIM-1 levels [1]	serum NGAL levels [1]	picosirius red staining of kidney, image quantification [1] [%]	Bin (human Gal3-His)	Kd (Galectin-3) [nM]	Epitope Mapping (hGal3 peptide)	Gal3 peptide bound (hGal3 peptide)	assembly of GAL3 and TIM3, % of levels observed in the absence of a GAL3-targeted antibody ([2]; 3 μg/mL (FIG. 24))	GAL3-TIM3 Blocking @ 3 ug/mL [2] [%]	IC50 ([2]; titration series, purified GAL3 and TIM3) [nM]
CN(C)C(=N)N=C(N)N [metformin, reference compound]	substantial reductions in picosirius red staining	the reduction was not statistically significant	significantly impact NGAL levels	1.83							
846.2H3: murine anti-Gal3 antibody (antibody, V domains shown) VH: QIQLVQSGPELKKPGETVKISCKASGYTFTNYGMNWVKQAPGKGLKWMGWINTYTGEPSYADDFKGRFAFSLETSASTAYLQINNLKNEDMATYFCARWGGYDGDYYAMDYWGQGTSVTVSS VL: NIMMTQSPSSLAVSAGEKVTMSCKSSQSVLYSSNQKNYLAWYQQKPGQSPKLLIYWASTRESGVPDRFTGSGSGTDFTLTISSVQPEDLAVYYCHQYLSSLTFGAGTKLELK					3	10.2	6	peptide 6	less than 5%	100	
13G4.2F8: murine anti-Gal3 antibody (antibody, V domains shown) VH: QVQLQQPGAELVKPGASVKLSCKASGYTFTSYWMHWVKQRPGQGLEWIGMIHPNSGSTDYNEKFKNKATLNVDKSSSTAYIQLSSLTSEDSAVYYCTRWGIYYYARDYWGQGTTLTVSS VL: DIVMTQSQKFMSTSVGERVSITCKASQNVGTNVAWYQQKAGQSLELLIYGASNRHTGVPDRFTGSGSGTDFTLTITNVQSEDMTNYFCEQYSNFPLTFGAGTKLELK						2.53	Non-linear			0	
13A12.2E5: murine anti-Gal3 antibody (antibody, V domains shown) VH: QIQLVQSGPELKKPGETVKISCKTSGYKFKTYVMSWVKQAPGKALKWMGWINTYSGVPTYADDFKGRFAFSLETSASTAYLEIINLKNEDTATYFCARDGNYGDPMDYWGQGTSVTVSS VL: DVVMTQTPLTLSVAIGQPASISCKSSQSLLYTNGKTYLNWLLQRPGQSPKRLIYLLSKLDSGVPDRFSASGSGTDFTLKISRVEAEDLGVYYCLQSTHFPLTFGAGTKLEMK						8.2		peptide 4; also recorded: peptide 6		35	
IMT006-1: humanized anti-Gal3 antibody derived from 4A11.2B5 (antibody, V domains shown, VH of IMT006-1; VL of IMT006-1, humanized anti-Gal3 antibody derived from 4A11.2B5) VH: QVQLVQSGAEVKKPGASVKVSCKASGYSFTNYYMHWVRQAPGQGLEWMGWIYPGSGNTNYNEKFQGRVTMTADTSISTAYMELSRLRSDDTAVYYCSTAPGGFDVWGQGTTVTVSS VL: DIVMTQTPLSLSVTPGQPASISCKSSKSLLHSDGITYLYWYLQKPGQSPQLLIYRMSNLASGVPDRFSGSGSGTDFTLKISRVEAEDVGVYYCAQMLEFPLTFGQGTKLEIK	substantial reductions in picosirius red staining	significantly reduced	significant reductions in serum NGAL levels	1.26							26.5
2D10.2B2: murine anti-Gal3 antibody (antibody, V domains shown) VH: QVQLQQSGPELVKPGASVKISCKASGYTFTDYYINWVKQRPGQGLEWIGWIYPGSNDTKYNEKFKGKATLTVDTSSSTAYMQLGSLTSEDSAVYFCANYFGCSGWFFDVWGTGTTVTVSS VL: DIVMTQAAFSNPVTLGTSASISCRSSKSLLHSDGITYLYWYLQRPGQSPQLLIYRMSNLASGVPDRFSGSGSGTDFTLRISRVEAEDVGVYYCAQMIEFPLTFGAGTILELK					3	0.753	6	peptide 6		86	
4A11.2B5: murine anti-Gal3 antibody, origin of IMT006-1 and IMT006-5 (antibody, V domains shown) VH: QVQLQQSGPELVKPGASVKISCKASGYSFTNYYIHWVKQRPGQGLEWIGWIYPGSGNTNYNEKFKGKATLTADTSSSTTNMQLSSLTSEDSAVYYCSTAPGGFDVWGSGTTVTVSS VL: DIVMTQAAFSNPVTLGTSASISCRSSKSLLHSDGITYLYWYLQRPGQSPQLLIYRMSNLASGVPDRFSGSGSGTDFTLRISRVEAEDVGVYYCAQMLEFPLTFGAGTKLELK					3	5.22	6	peptide 6		48	
